The test system of the series is Saccharomyces cerevisiae. Briefly: protein stability index of tFT-peptide fusion (C-terminal peptide) (PSI (0-1 scale)); higher = more stable (slower turnover). The settings on record: temperature: 30 C. How it is done:
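MPS profiling in S. cerevisiae of the yeast C-terminome library: the last 12 aa of each annotated ORF are fused to the C-terminus of a sfGFP-mCherry timer, after a GGGS linker. Cells are FACS-sorted into 8 mCherry/sfGFP bins and deep-sequenced. PSI runs from 0 (unstable) to 1 (stable); wild type and das1Δ backgrounds, two technical replicates each.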

[1] abbreviates: genetic background: das1 deletion.

± gives the standard deviation of the averaged measurements.

Our source for the protein stability index values is the supplement of paper PMC10724198.

Consider KSLFSIIDDLQS [MSH6 C-terminal 12 aa], for which the protein stability index amounted to 0.731 ± 0.0073 under setting [1] and 0.727 ± 0.021 (genetic background: wild type).

KTFWDKFWNVVA [CAN1 C-terminal 12 aa]: the protein stability index came to 0.735 ± 0.03 under setting [1] and 0.193 ± 0.014 (genetic background: wild type).

In the case of KTGKSSVIDLQR [GCN2 C-terminal 12 aa], the protein stability index by setting is: under setting [1], 0.712 ± 0.031; (genetic background: wild type) 0.726 ± 0.11.

For the sequence KTRWQRVWDVLS [ALP1 C-terminal 12 aa], the protein stability index by setting is: under setting [1], 0.7259 ± 0.0053; (genetic background: wild type) 0.207 ± 0.01.

Consider KTSSKGNARTLL [FMP49 C-terminal 12 aa], for which the protein stability index reads like this: under setting [1], 0.698 ± 0.025; (genetic background: wild type) 0.709 ± 0.0091.

With KVETVLNKMFEK [REC114 C-terminal 12 aa], the protein stability index is 0.701 ± 0.015 under setting [1] and 0.687 ± 0.022 (genetic background: wild type).

On to KVIRGKGFKLPK [ERD2 C-terminal 12 aa], for which the protein stability index is, setting by setting: under setting [1], 0.675 ± 0.0093; (genetic background: wild type) 0.667 ± 0.036.

On to KVLACYEEIDDY [UBC11 C-terminal 12 aa], for which the protein stability index under setting [1] worked out at 0.679 ± 0.0098 and the protein stability index (genetic background: wild type) came out at 0.712 ± 0.059.

Consider KYEPTQEIIEDI [ITR1 C-terminal 12 aa], for which the protein stability index worked out at 0.693 ± 0.036 under setting [1] and 0.702 ± 0.048 (genetic background: wild type).

For the sequence KYNNYFKIPPKY [BI3 C-terminal 12 aa], the protein stability index stood at 0.688 ± 0.022 under setting [1] and 0.659 ± 0.018 (genetic background: wild type).

Consider LAKLINKSCVFK [YKL069W C-terminal 12 aa], for which the protein stability index was 0.7 ± 0.023 under setting [1] and 0.642 ± 0.029 (genetic background: wild type).

As for LARGGVASFTVK [RNH70 C-terminal 12 aa], the protein stability index turned out to be 0.703 ± 0.0078 under setting [1] and 0.652 ± 0.0088 (genetic background: wild type).

Take LARLKTCVLLIN [YML122C C-terminal 12 aa]: the protein stability index is, setting by setting: under setting [1], 0.544 ± 0.017; (genetic background: wild type) 0.154 ± 0.0076.

For the sequence LCGAPNCKGFLN [SET1 C-terminal 12 aa], the protein stability index came to 0.677 ± 0.026 under setting [1] and 0.671 ± 0.036 (genetic background: wild type).

As to LEKSTNPIKKNN [VOA1 C-terminal 12 aa], the protein stability index is, setting by setting: under setting [1], 0.703 ± 0.023; (genetic background: wild type) 0.765 ± 0.038.

Regarding LEKVLNQIGLKN [YNL011C C-terminal 12 aa], the protein stability index runs as follows: under setting [1], 0.6874 ± 0.0064; (genetic background: wild type) 0.6425 ± 0.0062.

LEPQESKPTIDH [AIM34 C-terminal 12 aa]: the protein stability index reads like this: under setting [1], 0.697 ± 0.018; (genetic background: wild type) 0.6899 ± 0.005.

Sequence LFCYCSCDSYES [YBL100C C-terminal 12 aa] registered a protein stability index under setting [1] of 0.646 ± 0.017 and a protein stability index (genetic background: wild type) of 0.668 ± 0.031.

LFDARFERKNPH [SRB8 C-terminal 12 aa]: the protein stability index under setting [1] was determined as 0.737 ± 0.025 and the protein stability index (genetic background: wild type) stood at 0.7112 ± 0.0032.

On to “LGFIQNSTIVCQ [YMR306C-A C-terminal 12 aa]”, for which the protein stability index runs as follows: under setting [1], 0.467 ± 0.028; (genetic background: wild type) 0.494 ± 0.019.

For the sequence LGKKKPPSRLFR [CDC25 C-terminal 12 aa], the protein stability index is 0.707 ± 0.019 under setting [1] and 0.715 ± 0.035 (genetic background: wild type).

Consider LGLSLRRGTEIW [MRP8 C-terminal 12 aa], for which the protein stability index runs as follows: under setting [1], 0.72702 ± 0.00035; (genetic background: wild type) 0.72218 ± 0.00069.

As for “LGSNCVFLAIFR [YPL222C-A C-terminal 12 aa]”, the protein stability index under setting [1] came out at 0.674 ± 0.032 and the protein stability index (genetic background: wild type) amounted to 0.648 ± 0.02.

On to LHTEREKKKKKF [YKR040C C-terminal 12 aa], for which the protein stability index reads like this: under setting [1], 0.725 ± 0.043; (genetic background: wild type) 0.682 ± 0.1.

Regarding LHVVSSAYFEIQ [YEL075C C-terminal 12 aa], the protein stability index by setting is: under setting [1], 0.674 ± 0.041; (genetic background: wild type) 0.626 ± 0.044.

Turning to LICQTESNPKIV [VPS8 C-terminal 12 aa], the protein stability index came out at 0.708 ± 0.0091 under setting [1] and 0.694 ± 0.036 (genetic background: wild type).

Regarding LIVSFFYKRNAL [IQG1 C-terminal 12 aa], the protein stability index runs as follows: under setting [1], 0.667 ± 0.018; (genetic background: wild type) 0.584 ± 0.015.

Consider LIVSYCASVAFG [ATG12 C-terminal 12 aa], for which the protein stability index is 0.366 ± 0.013 under setting [1] and 0.382 ± 0.0029 (genetic background: wild type).

Consider LKDQIVETRTPI [ERG27 C-terminal 12 aa], for which the protein stability index worked out at 0.707 ± 0.042 under setting [1] and 0.664 ± 0.02 (genetic background: wild type).

On to LKLKRDLLRLKR [CIP1 C-terminal 12 aa], for which the protein stability index runs as follows: under setting [1], 0.682 ± 0.019; (genetic background: wild type) 0.651 ± 0.021.

In the case of LKQTVESLIKEL [VPS51 C-terminal 12 aa], the protein stability index amounted to 0.66 ± 0.0088 under setting [1] and 0.711 ± 0.072 (genetic background: wild type).

Take LKSATESFVATF [ATP1 C-terminal 12 aa]: the protein stability index came to 0.701 ± 0.0097 under setting [1] and 0.694 ± 0.014 (genetic background: wild type).

As for LKSVKHSIRVYT [YPR012W C-terminal 12 aa], the protein stability index runs as follows: under setting [1], 0.627 ± 0.015; (genetic background: wild type) 0.604 ± 0.028.

On to LLFGDEVVACKD [YDL172C C-terminal 12 aa], for which the protein stability index amounted to 0.722 ± 0.017 under setting [1] and 0.691 ± 0.011 (genetic background: wild type).

For LLGAITALFGLI [PLB2 C-terminal 12 aa], the protein stability index under setting [1] was 0.686 ± 0.034 and the protein stability index (genetic background: wild type) came out at 0.658 ± 0.029.

With LLKKLKVVFGIE [FUN12 C-terminal 12 aa], the protein stability index is, setting by setting: under setting [1], 0.703 ± 0.014; (genetic background: wild type) 0.68523 ± 0.0002.

Take LLLTILLFYPPY [YBL109W C-terminal 12 aa]: the protein stability index was determined as 0.296 ± 0.011 under setting [1] and 0.318 ± 0.022 (genetic background: wild type).

On to LLTAMSAQISFD [AAD16 C-terminal 12 aa], for which the protein stability index runs as follows: under setting [1], 0.735 ± 0.00072; (genetic background: wild type) 0.72 ± 0.012.

Turning to LLYHMDLLLKVK [VID28 C-terminal 12 aa], the protein stability index is, setting by setting: under setting [1], 0.299 ± 0.026; (genetic background: wild type) 0.365 ± 0.015.

With “LMQLLLGSLGLS [YKL145W-A C-terminal 12 aa]”, the protein stability index under setting [1] amounted to 0.706 ± 0.0093 and the protein stability index (genetic background: wild type) was found to be 0.716 ± 0.031.

In the case of LNDMVLELKENY [NNF1 C-terminal 12 aa], the protein stability index runs as follows: under setting [1], 0.698 ± 0.015; (genetic background: wild type) 0.704 ± 0.0096.

Take LNEPKDSAENKI [SRC1 C-terminal 12 aa]: the protein stability index amounted to 0.6958 ± 0.0062 under setting [1] and 0.659 ± 0.026 (genetic background: wild type).

As to LNWVFSFYSCSE [YIL163C C-terminal 12 aa], the protein stability index by setting is: under setting [1], 0.6796 ± 0.0049; (genetic background: wild type) 0.688 ± 0.019.

On to LQYKKVGKWRED [URB2 C-terminal 12 aa], for which the protein stability index reads like this: under setting [1], 0.724 ± 0.017; (genetic background: wild type) 0.736 ± 0.0096.

Turning to LRKAAANNCIQF [SUA5 C-terminal 12 aa], the protein stability index is, setting by setting: under setting [1], 0.7215 ± 0.0026; (genetic background: wild type) 0.7134 ± 0.0016.

For LRKRLSCYMLIL [YDR114C C-terminal 12 aa], the protein stability index is, setting by setting: under setting [1], 0.576 ± 0.013; (genetic background: wild type) 0.4114 ± 0.0012.

Regarding LRNQSPFTSSNE [YKL107W C-terminal 12 aa], the protein stability index was found to be 0.695 ± 0.02 under setting [1] and 0.682 ± 0.029 (genetic background: wild type).

On to LRRGEPDNKVNR [SPG4 C-terminal 12 aa], for which the protein stability index runs as follows: under setting [1], 0.71 ± 0.019; (genetic background: wild type) 0.708 ± 0.012.

Take LRVYENFQKFIK [YMR262W C-terminal 12 aa]: the protein stability index under setting [1] came out at 0.72 ± 0.054 and the protein stability index (genetic background: wild type) was 0.705 ± 0.04.

For the sequence LSDASYDTYELV [SPG5 C-terminal 12 aa], the protein stability index under setting [1] was found to be 0.703 ± 0.011 and the protein stability index (genetic background: wild type) amounted to 0.743 ± 0.01.

LSEKIYDAFGKL [MUS81 C-terminal 12 aa]: the protein stability index runs as follows: under setting [1], 0.723 ± 0.015; (genetic background: wild type) 0.7271 ± 0.0047.

For the sequence LSIFGFDMFNRK [YMR1 C-terminal 12 aa], the protein stability index by setting is: under setting [1], 0.706 ± 0.046; (genetic background: wild type) 0.703 ± 0.028.

LSNMLNQFILNL [YLR202C C-terminal 12 aa]: the protein stability index runs as follows: under setting [1], 0.754 ± 0.058; (genetic background: wild type) 0.74991 ± 6.5e-05.

Consider LSQIVDIWNKDI [MNT2 C-terminal 12 aa], for which the protein stability index worked out at 0.741 ± 0.03 under setting [1] and 0.79 ± 0.044 (genetic background: wild type).

Consider LSTFFLFHNPCN [YGL239C C-terminal 12 aa], for which the protein stability index is, setting by setting: under setting [1], 0.762 ± 0.022; (genetic background: wild type) 0.706 ± 0.079.

LSTLGVGAAIIS [AVT1 C-terminal 12 aa]: the protein stability index was determined as 0.695 ± 0.024 under setting [1] and 0.675 ± 0.035 (genetic background: wild type).

LSVHPLKPCDPN [INP52 C-terminal 12 aa]: the protein stability index by setting is: under setting [1], 0.684 ± 0.0054; (genetic background: wild type) 0.661 ± 0.042.

On to LTARKVNALRHR [KNH1 C-terminal 12 aa], for which the protein stability index worked out at 0.694 ± 0.028 under setting [1] and 0.694 ± 0.048 (genetic background: wild type).

As for LTILRISELSMN [MRPL49 C-terminal 12 aa], the protein stability index stood at 0.7053 ± 0.0034 under setting [1] and 0.354 ± 0.0057 (genetic background: wild type).

For LTLNWGVEIVKK [RDI1 C-terminal 12 aa], the protein stability index runs as follows: under setting [1], 0.73 ± 0.03; (genetic background: wild type) 0.725 ± 0.017.

For the sequence “LTMLPPMAPLLS [YMR158W-B C-terminal 12 aa]”, the protein stability index is 0.684 ± 0.021 under setting [1] and 0.653 ± 0.018 (genetic background: wild type).

Take LTPADLQFLFNN [RAD16 C-terminal 12 aa]: the protein stability index reads like this: under setting [1], 0.72 ± 0.013; (genetic background: wild type) 0.708 ± 0.017.

Turning to LTQVEKPRGIFD [DDC1 C-terminal 12 aa], the protein stability index by setting is: under setting [1], 0.71 ± 0.023; (genetic background: wild type) 0.674 ± 0.013.

LVEGQTFDADVE [EGD1 C-terminal 12 aa]: the protein stability index reads like this: under setting [1], 0.69111 ± 4.7e-05; (genetic background: wild type) 0.671 ± 0.033.

As to LVLKQRQEQEKQ [GDI1 C-terminal 12 aa], the protein stability index runs as follows: under setting [1], 0.688 ± 0.025; (genetic background: wild type) 0.717 ± 0.06.

Turning to LVRFIEAEKFVG [SNX3 C-terminal 12 aa], the protein stability index reads like this: under setting [1], 0.7119 ± 0.003; (genetic background: wild type) 0.6912 ± 0.0047.

On to LYDNIRSGNFGI [MSB1 C-terminal 12 aa], for which the protein stability index is 0.771 ± 0.008 under setting [1] and 0.6503 ± 0.00092 (genetic background: wild type).
